# Experimental data reported in IntAct's records for PubMed 11356188.
# B1: Circadian clock oscillator protein KaiA (Synechococcus elongatus (strain PCC 7942)), Q79PF6 (parent)
# chain: MLSQIAICIWVESTAILQDCQRALSADRYQLQVCESGEMLLEYAQTHRDQIDCLILVAANPSFRAVVQQLCFEGVVVPAIVVGDRDSEDPDEPAKEQLYHSAELHLGIHQLEQLPYQVDAALAEFLRLAPVETMADHIMLMGANHDPELSSQQRDLAQRLQERLGYLGVYYKRDPDRFLRNLPAYESQKLHQAMQTSYREIVLSYFSPNSNLNQSIDNFVNMAFFADVPVTKVVEIHMELMDEFAKKLRVEGRSEDILLDYRLTLIDVIAHLCEMYRRSIPRET
# partner: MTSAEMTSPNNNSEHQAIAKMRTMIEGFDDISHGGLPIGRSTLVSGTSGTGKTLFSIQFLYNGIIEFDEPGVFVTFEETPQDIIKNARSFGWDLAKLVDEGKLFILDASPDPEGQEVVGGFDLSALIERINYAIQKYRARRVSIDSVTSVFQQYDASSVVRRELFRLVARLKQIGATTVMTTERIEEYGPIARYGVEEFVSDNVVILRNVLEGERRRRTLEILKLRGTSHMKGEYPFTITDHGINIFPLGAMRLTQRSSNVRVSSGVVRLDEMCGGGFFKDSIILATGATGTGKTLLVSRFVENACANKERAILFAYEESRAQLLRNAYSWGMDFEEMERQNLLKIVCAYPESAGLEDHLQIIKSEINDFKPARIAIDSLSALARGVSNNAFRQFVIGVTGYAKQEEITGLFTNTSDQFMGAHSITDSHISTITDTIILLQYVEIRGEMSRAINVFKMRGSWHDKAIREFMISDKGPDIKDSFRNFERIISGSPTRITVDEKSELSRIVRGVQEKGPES
# B2: Circadian clock oscillator protein KaiC (Synechococcus elongatus (strain PCC 7942)), Q79PF4 (parent)
# chain: B1 partner
# partner: B1 chain
# Variants of: B1
# Details: with kaic_syne7 kaiC, Q79PF4
row,effect of a mutation on the interaction,Variant
1,decreasing interaction,MLSQIAICIWVESTAILQDCQRALSADRYQLQVCESGEMLLEYAQTHRDQIDCLILVAANPSFRAVVQQLCFEGVVVPAIVVGDRDSEDPDEPAKEQLYHSAELHLGIHQLEQLPYQVDAALAEFLRLAPVETMADHIMLMGANHDPELSSQQRDLAQRLQERLGYLGVYYKRDPDRFLRNLPAYESQKLHQAMQTSYREIVLSYFSPNSNLNQSIDNFVNMAFFADVPVTKVVEIHMELMDEFAKKLHVEGRSEDILLDYRLTLIDVIAHLCEMYRRSIPRET [R249H]

# Variants of: B1
# Details: with kaic_syne7 kaiC, Q79PF4
# Remark: another data set of the same source
row,effect of a mutation on the interaction,Variant
1,decreasing interaction,MLSQIAICIWVESTAILQDCQRALSADRYQLQVCESGEMLLEYAQTHRDQIDCLILVAANPSFRAVVQQLCFEGVVVPAIVVGDRDSEDPDEPAKEQLYHSAELHLGIHQLEQLPYQVDAALAEFLRLAPVETMADHIMLMGANHDPELSSQQRDLAQRLQERLGCLGVYYKRDPDRFLRNLPAYESQKLHQAMQTSYREIVLSYFSPNSNLNQSIDNFVNMAFFADVPVTKVVEIHMELMDEFAKKLRVEGRSEDILLDYRLTLIDVIAHLCEMYRRSIPRET [Y166C]

# Variants of: B2
# Details: with kaia_syne7 kaiA, Q79PF6
row,effect of a mutation on the interaction,Variant
1,decreasing interaction,MTSAEMTSPNNNSEHQAIAKMRTMIEGFDDISHGGLPIGRSTLVSGTSGTGKTLFSIQFLYNGIIEFDEPGVFVTFEETPQDIIKNARSFGWDLAKLVDEGKLFILDASPDPEGQEVVGGFDLSALIERINYAIQKYRARRVSIDSVTSVFQQYDASSVVRRELFRLVARLKQIGATTVMTTERIEEYGPIARYGVEEFVSDNVVILRNVLEGERRRRTLEILKLRGTSHMKGEYPFTITDHGINIFPLGAMRLTQRSSNVRVSSGVVRLDEMCGGGFFKDSIILATGATGTGKTLLVSRFVENACANKERAILFAYEESRAQLLRNAYSWGMDFEEMERQNLLKIVCAYPESAGLEDHLQIIKSEINDFKPARIAIDSLSALARGVSNNAFRQFVIGVTGYAKQEEITGLFTNTSDQFMGAHSITDSHISTITDTIILLQYVEIRGEMSRAINVFKMRGSWHDKAIREFMISDKGPDIKDSFRNFERIISGSPARITVDEKSELSRIVRGVQEKGPES [T495A]

# Variants of: B2
# Details: with kaia_syne7 kaiA, Q79PF6
# Remark: another data set of the same source
row,effect of a mutation on the interaction,Variant
1,decreasing interaction,MTSAEMTSPNNNSEHQAIAKMRTMIEGFDDISHGGLPIGRSTLVSGTSGTGKTLFSIQFLYNGIIEFDEPGVFVTFEETPQDIIKNARSFGWDLAKLVDEGKLFILDASPDPEGQEVVGGFDLSALIERINYAIQKYRARRVSIDSVTSVFQQYDASSVVRRELFRLVARLKQIGATTVMTTERIEEYGPIARYGVEEFVSDNVVILRNVLEGECRRRTLEILKLRGTSHMKGEYPFTITDHGINIFPLGAMRLTQRSSNVRVSSGVVRLDEMCGGGFFKDSIILATGATGTGKTLLVSRFVENACANKERAILFAYEESRAQLLRNAYSWGMDFEEMERQNLLKIVCAYPESAGLEDHLQIIKSEINDFKPARIAIDSLSALARGVSNNAFRQFVIGVTGYAKQEEITGLFTNTSDQFMGAHSITDSHISTITDTIILLQYVEIRGEMSRAINVFKMRGSWHDKAIREFMISDKGPDIKDSFRNFERIISGSPTRITVDEKSELSRIVRGVQEKGPES [R215C]
2,decreasing interaction,MTSAEMTSPNNNSEHQAIAKMRTMIEGFDDISHGGLPIGRSTLVSGTSGTGKTLFSIQFLYNGIIEFDEPGVFVTFEETPQDIIKNARSFGWDLAKLVDEGKLFILDASPDPEGQEVVGGFDLSALIERINYAIQKYRARRVSIDSVTSVFQQYDASSVVRRELFRLVARLKQIGATTVMTTERIEEYGPIARYGVEEFVSDNVVILRNVLEGERRRRTLEILKLRGTSHMKGEYPFTITDHGINIFKLGAMRLTQRSSNVRVSSGVVRLDEMCGGGFFKDSIILATGATGTGKTLLVSRFVENACANKERAILFAYEESRAQLLRNAYSWGMDFEEMERQNLLKIVCAYPESAGLEDHLQIIKSEINDFKPARIAIDSLSALARGVSNNAFRQFVIGVTGYAKQEEITGLFTNTSDQFMGAHSITDSHISTITDTIILLQYVEIRGEMSRAINVFKMRGSWHDKAIREFMISDKGPDIKDSFRNFERIISGSPTRITVDEKSELSRIVRGVQEKGPES [P248K]
